Measured values as given in article PMC5669812 (Protein expression and purification, 2017).
Read-outs that look alike come from different tables or passages of the source.

What was measured:
MTSL-labeled GroEL^A138C [1] = molecular target: T1, MTSL-labeled GroEL^A138C (E. coli, UniProt P0A6F5 2-548, C458A | C519A, MTSL nitroxide spin label on cysteine 138); experiment: negative-stain electron microscopy
MTSL-labeled GroEL^A138C [2] = molecular target: T1, MTSL-labeled GroEL^A138C; experiment: negative-stain electron microscopy; remark: listed apart in the source
native gel or EMSA = molecular target: the molecule itself; experiment: native gel or EMSA

stoichiometry N (MTSL-labeled GroEL^A138C [1])	stoichiometry N (MTSL-labeled GroEL^A138C [2])	Binder	binding result (native gel or EMSA)
1 GroES molecules per GroEL-14mer	2 GroES molecules per GroEL-14mer	GroES (natural protein) MNIRPLHDRVIVKRKEVETKSAGGIVLTGSAAAKSTRGEVLAVGNGRILENGEVKPLDVKVGDIVIFNDGYGVKSEKIDNEEVLIMSESDILAIVEA	
		MTS-labeled GroEL^R268C (natural protein, E. coli, diamagnetic MTS label on cysteine 268) AAKDVKFGNDARVKMLRGVNVLADAVKVTLGPKGRNVVLDKSFGAPTITKDGVSVAREIELEDKFENMGAQMVKEVASKANDAAGDGTTTATVLAQAIITEGLKAVAAGMNPMDLKRGIDKAVTAAVEELKALSVPASDSKAIAQVGTISANSDETVGKLIAEAMDKVGKEGVITVEDGTGLQDELDVVEGMQFDRGYLSPYFINKPETGAVELESPFILLADKKISNIREMLPVLEAVAKAGKPLLIIAEDVEGEALATLVVNTMCGIVKVAAVKAPGFGDRRKAMLQDIATLTGGTVISEEIGMELEKATLEDLGQAKRVVINKDTTTIIDGVGEEAAIQGRVAQIRQQIEEATSDYDREKLQERVAKLAGGVAVIKVGAATEVEMKEKKARVEDALHATRAAVEEGVVAGGGVALIRVASKLADLRGQNEDQNVGIKVALRAMEAPLRQIVLNAGEEPSVVANTVKGGDGNYGYNAATEEYGNMIDMGILDPTKVTRSALQYAASVAGLMITTEAMVTDLPKNDAADLGAAGGMGGMGGMGGMM	binds
